According to patent publication US20240199740A1:
One block for each binder: values may come before it.

Tests used:
[1] = target: recombinant human CD123 protein (R&D Systems, 301-R3/CF) (human) (UniProt P26951); test: ELISA, antibody 7G3 coated at 1 µg/ml, in house biotinylated recombinant CD123 titrated (concentration axis taken as CD123 per paragraph 750)
[2] = target: recombinant human CD123 protein (R&D Systems, 301-R3/CF) (human) (UniProt P26951); test: competition ELISA, coated antibody 7G3, 4 nM biotinylated recombinant CD123, antibody 7G3 in solution titrated
[3] = target: cynomolgus TCR/CD3 expressed on cells (cynomolgus); test: cell-based or functional assay

recombinant human CD123 protein (R&D Systems, 301-R3/CF) (human), sequence (P26951 19-305): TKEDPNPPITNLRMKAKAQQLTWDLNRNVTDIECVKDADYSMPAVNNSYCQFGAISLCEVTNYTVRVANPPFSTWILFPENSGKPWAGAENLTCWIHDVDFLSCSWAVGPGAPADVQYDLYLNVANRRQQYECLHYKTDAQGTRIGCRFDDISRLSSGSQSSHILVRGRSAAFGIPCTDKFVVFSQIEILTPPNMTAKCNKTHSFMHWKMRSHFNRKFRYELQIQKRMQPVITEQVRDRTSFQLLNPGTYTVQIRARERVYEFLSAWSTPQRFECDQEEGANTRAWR

EC50 (read off the curve) [1]: 10 nM | IC50 (read off the curve) [2]: 2 nM
B1: mouse monoclonal anti-CD123 antibody (clone 7G3) (antibody, from another filing, V domains shown)
VH: EVQLQQSGPELVKPGASVKMSCKASGYTFTDYYMKWVKQSHGKSLEWIGDIIPSNGATFYNQKFKGKATLTVDRSSSTAYMHLNSLTSEDSAVYYCTRSHLLRASWFAYWGQGTLVTVSA
VL: DFVMTQSPSSLTVTAGEKVTMSCKSSQSLLNSGNQKNYLTWYLQKPGQPPKLLIYWASTRESGVPDRFTGSGSGTDFTLTISSVQAEDLAVYYCQNDYSYPYTFGGGTKLEIK

B2: T017000135 (bispecific antibody)
chain: DVQLVESGGGLVQAGGPLRLSCAASGRTFSSYVMGWFRQAPGKEREFVAAIYWSNGKTQYTDSVKGRFTISGDNAKNTVYLQMNSLNPEDTAVYYCVADKDETGFRTLPIAYDYWGQGTLVTVSSGGGGSGGGGSGGGGSGGGGSGGGGSGGGGSGGGGSEVQLVESGGGLVQPGGSLRLSCVASGDVHKINFLGWYRQAPGKEREKVAHISIGDQTDYADSAKGRFTISRDESKNMVYLQMNSLKPEDTAVYFCRAFSRIYPYDYWGQGTLVTVSSGGGGSGGGGSGGGGSGGGGSGGGGSGGGGSGGGGSEVQLVESGGGLVQAGGSLRLSCAASGITSKINDMGWYRQTPGNYREWVASITATGTTNYRDSVKGRFTISRDNAKSTVYLQMNSLKPEDTTVYYCNTFPPISNFWGQGTLVTVSSA
% lysis, redirected cyno T cell mediated killing of KG1a cells, flow cytometry [3]: 22% | EC50 (M), redirected cyno T cell mediated killing of KG1a cells, flow cytometry [3]: 2.4e-11 M
